US20230167455

T1: EB2 protein (endogenous target of CDKL5 in mouse brain), Q8R001
T1 chain: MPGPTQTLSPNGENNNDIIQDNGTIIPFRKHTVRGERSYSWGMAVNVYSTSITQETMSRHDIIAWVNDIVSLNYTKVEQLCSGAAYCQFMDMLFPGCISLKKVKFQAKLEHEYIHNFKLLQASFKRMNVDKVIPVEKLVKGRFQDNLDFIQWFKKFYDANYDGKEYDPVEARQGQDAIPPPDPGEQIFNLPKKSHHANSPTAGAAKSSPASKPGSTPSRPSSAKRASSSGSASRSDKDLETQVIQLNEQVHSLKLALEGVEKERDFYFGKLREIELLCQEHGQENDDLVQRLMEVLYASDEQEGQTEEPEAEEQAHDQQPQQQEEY


Target: T1, EB2 protein (endogenous target of CDKL5 …)

Protein	EB2 phosphorylation (Cdkl5(D471fs) mouse brain, 3 months after AAV)	EB2 phosphorylation (Cdkl5(R59X) mouse brain, 3 months after AAV)	ability to phosphorylate EB2 (mouse brain)	kinase activity, blotting for phosphorylated EB2 (Cdkl5-ko mouse brain, 3 months after AAV)	phosphorylation of EB2 (Western blot of mouse brain, pS222EB2)	EB2 phosphorylation levels (Western blot, Cdkl5-ko mouse brain)
human CDKL5, isoform 1 (protein) MKIPNIGNVMNKFEILGVVGEGAYGVVLKCRHKETHEIVAIKKFKDSEENEEVKETTLRELKMLRTLKQENIVELKEAFRRRGKLYLVFEYVEKNMLELLEEMPNGVPPEKVKSYIYQLIKAIHWCHKNDIVHRDIKPENLLISHNDVLKLCDFGFARNLSEGNNANYTEYVATRWYRSPELLLGAPYGKSVDMWSVGCILGELSDGQPLFPGESEIDQLFTIQKVLGPLPSEQMKLFYSNPRFHGLRFPAVNHPQSLERRYLGILNSVLLDLMKNLLKLDPADRYLTEQCLNHPTFQTQRLLDRSPSRSAKRKPYHVESSTLSNRNQAGKSTALQSHHRSNSKDIQNLSVGLPRADEGLPANESFLNGNLAGASLSPLHTKTYQASSQPGSTSKDLTNNNIPHLLSPKEAKSKTEFDFNIDPKPSEGPGTKYLKSNSRSQQNRHSFMESSQSKAGTLQPNEKQSRHSYIDTIPQSSRSPSYRTKAKSHGALSDSKSVSNLSEARAQIAEPSTSRYFPSSCLDLNSPTSPTPTRHSDTRTLLSPSGRNNRNEGTLDSRRTTTRHSKTMEELKLPEHMDSSHSHSLSAPHESFSYGLGYTSPFSSQQRPHRHSMYVTRDKVRAKGLDGSLSIGQGMAARANSLQLLSPQPGEQLPPEMTVARSSVKETSREGTSSFHTRQKSEGGVYHDPHSDDGTAPKENRHLYNDPVPRRVGSFYRVPSPRPDNSFHENNVSTRVSSLPSESSSGTNHSKRQPAFDPWKSPENISHSEQLKEKEKQGFFRSMKKKKKKSQTVPNSDSPDLLTLQKSIHSASTPSSRPKEWRPEKISDLQTQSQPLKSLRKLLHLSSASNHPASSDPRFQPLTAQQTKNSFSEIRIHPLSQASGGSSNIRQEPAPKGRPALQLPGQMDPGWHVSSVTRSATEGPSYSEQLGAKSGPNGHPYNRTNRSRMPNLNDLKETAL	showed robust hCDKL5 protein expression and EB2 phosphorylation 3 months later	showed robust hCDKL5 protein expression and EB2 phosphorylation 3 months later	All tested plasmids expressed well in mouse brain, showing minor differences in ability to phosphorylate EB2 (measurement of CDKL5 kinase activity)	human CDKL5 showed robust kinase activity when blotting for phosphorylated EB2 protein	CDKL5 was fully active, as determined by its ability to phosphorylate its endogenous target EB2 protein	–
human CDKL5, isoform 2 (protein) MKIPNIGNVMNKFEILGVVGEGAYGVVLKCRHKETHEIVAIKKFKDSEENEEVKETTLRELKMLRTLKQENIVELKEAFRRRGKLYLVFEYVEKNMLELLEEMPNGVPPEKVKSYIYQLIKAIHWCHKNDIVHRDIKPENLLISHNDVLKLCDFGFARNLSEGNNANYTEYVATRWYRSPELLLGAPYGKSVDMWSVGCILGELSDGQPLFPGESEIDQLFTIQKVLGPLPSEQMKLFYSNPRFHGLRFPAVNHPQSLERRYLGILNSVLLDLMKNLLKLDPADRYLTEQCLNHPTFQTQRLLDRSPSRSAKRKPYHVESSTLSNRNQAGKSTALQSHHRSNSKDIQNLSVGLPRADEGLPANESFLNGNLAGASLSPLHTKTYQASSQPGSTSKDLTNNNIPHLLSPKEAKSKTEFDFNIDPKPSEGPGTKYLKSNSRSQQNRHSFMESSQSKAGTLQPNEKQSRHSYIDTIPQSSRSPSYRTKAKSHGALSDSKSVSNLSEARAQIAEPSTSRYFPSSCLDLNSPTSPTPTRHSDTRTLLSPSGRNNRNEGTLDSRRTTTRHSKTMEELKLPEHMDSSHSHSLSAPHESFSYGLGYTSPFSSQQRPHRHSMYVTRDKVRAKGLDGSLSIGQGMAARANSLQLLSPQPGEQLPPEMTVARSSVKETSREGTSSFHTRQKSEGGVYHDPHSDDGTAPKENRHLYNDPVPRRVGSFYRVPSPRPDNSFHENNVSTRVSSLPSESSSGTNHSKRQPAFDPWKSPENISHSEQLKEKEKQGFFRSMKKKKKKSQTTDSTNGENPSIKKSLFPLFNSKNHLKHSSSLKKLPVVTPPMVPNSDSPDLLTLQKSIHSASTPSSRPKEWRPEKISDLQTQSQPLKSLRKLLHLSSASNHPASSDPRFQPLTAQQTKNSFSEIRIHPLSQASGGSSNIRQEPAPKGRPALQLPGQMDPGWHVSSVTRSATEGPSYSEQLGAKSGPNGHPYNRTNRSRMPNLNDLKETAL	–	–	All tested plasmids expressed well in mouse brain, showing minor differences in ability to phosphorylate EB2 (measurement of CDKL5 kinase activity)	–	–	EB2 phosphorylation levels generated by isoform 2 were slightly higher
human CDKL5, isoform 3 (protein) MKIPNIGNVMNKFEILGVVGEGAYGVVLKCRHKETHEIVAIKKFKDSEENEEVKETTLRELKMLRTLKQENIVELKEAFRRRGKLYLVFEYVEKNMLELLEEMPNGVPPEKVKSYIYQLIKAIHWCHKNDIVHRDIKPENLLISHNDVLKLCDFGFARNLSEGNNANYTEYVATRWYRSPELLLGAPYGKSVDMWSVGCILGELSDGQPLFPGESEIDQLFTIQKVLGPLPSEQMKLFYSNPRFHGLRFPAVNHPQSLERRYLGILNSVLLDLMKNLLKLDPADRYLTEQCLNHPTFQTQRLLDRSPSRNQAGKSTALQSHHRSNSKDIQNLSVGLPRADEGLPANESFLNGNLAGASLSPLHTKTYQASSQPGSTSKDLTNNNIPHLLSPKEAKSKTEFDFNIDPKPSEGPGTKYLKSNSRSQQNRHSFMESSQSKAGTLQPNEKQSRHSYIDTIPQSSRSPSYRTKAKSHGALSDSKSVSNLSEARAQIAEPSTSRYFPSSCLDLNSPTSPTPTRHSDTRTLLSPSGRNNRNEGTLDSRRTTTRHSKTMEELKLPEHMDSSHSHSLSAPHESFSYGLGYTSPFSSQQRPHRHSMYVTRDKVRAKGLDGSLSIGQGMAARANSLQLLSPQPGEQLPPEMTVARSSVKETSREGTSSFHTRQKSEGGVYHDPHSDDGTAPKENRHLYNDPVPRRVGSFYRVPSPRPDNSFHENNVSTRVSSLPSESSSGTNHSKRQPAFDPWKSPENISHSEQLKEKEKQGFFRSMKKKKKKSQTVPNSDSPDLLTLQKSIHSASTPSSRPKEWRPEKISDLQTQSQPLKSLRKLLHLSSASNHPASSDPRFQPLTAQQTKNSFSEIRIHPLSQASGGSSNIRQEPAPKGRPALQLPGQMDPGWHVSSVTRSATEGPSYSEQLGAKSGPNGHPYNRTNRSRMPNLNDLKETAL	–	–	All tested plasmids expressed well in mouse brain, showing minor differences in ability to phosphorylate EB2 (measurement of CDKL5 kinase activity)	–	–	by isoforms three or 4 slightly lower compared to isoform 1
human CDKL5, isoform 4 (protein) MKIPNIGNVMNKFEILGVVGEGAYGVVLKCRHKETHEIVAIKKFKDSEENEEVKETTLRELKMLRTLKQENIVELKEAFRRRGKLYLVFEYVEKNMLELLEEMPNGVPPEKVKSYIYQLIKAIHWCHKNDIVHRDIKPENLLISHNDVLKLCDFGFARNLSEGNNANYTEYVATRWYRSPELLLGAPYGKSVDMWSVGCILGELSDGQPLFPGESEIDQLFTIQKVLGPLPSEQMKLFYSNPRFHGLRFPAVNHPQSLERRYLGILNSVLLDLMKNLLKLDPADRYLTEQCLNHPTFQTQRLLDRSPSRNQAGKSTALQSHHRSNSKDIQNLSVGLPRADEGLPANESFLNGNLAGASLSPLHTKTYQASSQPGSTSKDLTNNNIPHLLSPKEAKSKTEFDFNIDPKPSEGPGTKYLKSNSRSQQNRHSFMESSQSKAGTLQPNEKQSRHSYIDTIPQSSRSPSYRTKAKSHGALSDSKSVSNLSEARAQIAEPSTSRYFPSSCLDLNSPTSPTPTRHSDTRTLLSPSGRNNRNEGTLDSRRTTTRHSKTMEELKLPEHMDSSHSHSLSAPHESFSYGLGYTSPFSSQQRPHRHSMYVTRDKVRAKGLDGSLSIGQGMAARANSLQLLSPQPGEQLPPEMTVARSSVKETSREGTSSFHTRQKSEGGVYHDPHSDDGTAPKENRHLYNDPVPRRVGSFYRVPSPRPDNSFHENNVSTRVSSLPSESSSGTNHSKRQPAFDPWKSPENISHSEQLKEKEKQGFFRSMKKKKKKSQTTDSTNGENPSIKKSLFPLFNSKNHLKHSSSLKKLPVVTPPMVPNSDSPDLLTLQKSIHSASTPSSRPKEWRPEKISDLQTQSQPLKSLRKLLHLSSASNHPASSDPRFQPLTAQQTKNSFSEIRIHPLSQASGGSSNIRQEPAPKGRPALQLPGQMDPGWHVSSVTRSATEGPSYSEQLGAKSGPNGHPYNRTNRSRMPNLNDLKETAL	–	–	All tested plasmids expressed well in mouse brain, showing minor differences in ability to phosphorylate EB2 (measurement of CDKL5 kinase activity)	–	–	by isoforms three or 4 slightly lower compared to isoform 1
